Experimental findings from the RNAGym collection of RNA variant scans (doi:10.7554/elife.90254) are described below.

B1: OR4K15 (parent)
chain: GUUAACGGUCAUAGGCCAUGGAAACUAGGAGCACCAUUUCGCUGCCAGUGAAGAAAUGAACAAAGAAAAUCUGGGCCAGGCAGGCAUCAAAAGAAAUAGUCUUGCGCUCAACCAGAAAGUCUGUAAUCAUUUUAAGGGUA

The variants in this data set derive from B1. Kind of data set: self-cleavage, relative activity (ratio to wild type); higher = more cleavage; in vitro, sequencing; the parent is a self-cleaving ribozyme.
As for A5G A52U, the self-cleavage was found to be 0.85.

Regarding U3C A5G, the self-cleavage turned out to be 1.

As for A114G G138A, the self-cleavage was found to be 0.76.

Consider U38C C101U, for which the self-cleavage was 0.35.

A64G A140U: the self-cleavage came out at 1.37.

Take A64G U70C: the self-cleavage is 0.57.

On to A47G U133C, for which the self-cleavage turned out to be 1.99.

For U12A A52U, the self-cleavage was determined as 1.23.

A92U G123U: the self-cleavage was 2.07.

As to G50U A82U, the self-cleavage is 0.23.

Turning to A30C U132C, the self-cleavage amounted to 1.12.

In the case of A52G U127C, the self-cleavage came out at 0.95.

Take U87G A126G: the self-cleavage is 0.48.

A94U A129U: the self-cleavage was 1.22.

A89G A140G: the self-cleavage amounted to 1.55.

As to A33G U49G, the self-cleavage was 0.61.

As for U26C A82G, the self-cleavage is 0.5.

On to G21C A68G, for which the self-cleavage was 2.19.

As to U108A A125G, the self-cleavage was found to be 0.

On to U97C, for which the self-cleavage was 0.71.

A51C U102A: the self-cleavage stood at 0.84.

Take A36G U120C: the self-cleavage was determined as 1.28.

As to G84A A135G, the self-cleavage was 2.3.

For U132C A140U, the self-cleavage was 1.65.

With U100C U139A, the self-cleavage turned out to be 2.28.

Regarding U72A U127G, the self-cleavage was found to be 0.23.

Take A66U U139A: the self-cleavage worked out at 2.31.

In the case of G14A A33U, the self-cleavage is 1.16.

For A33G A96U, the self-cleavage amounted to 1.14.

With A33G A96C, the self-cleavage turned out to be 0.76.

Turning to A5G A55C, the self-cleavage was found to be 0.33.

On to A126U G137A, for which the self-cleavage turned out to be 1.21.

On to A63G A126U, for which the self-cleavage was determined as 0.57.

A18G A126C: the self-cleavage is 0.48.

With A55C A59G, the self-cleavage came to 0.36.

Consider A4G A62G, for which the self-cleavage came out at 1.09.

Regarding G29U A78U, the self-cleavage is 0.35.

Regarding C16U A114G, the self-cleavage worked out at 0.2.

For U120C A126G, the self-cleavage was 0.27.

As to U37C U132A, the self-cleavage came out at 1.34.

A95G U103C: the self-cleavage came out at 1.25.

Turning to C71U A91G, the self-cleavage is 0.41.

A23G A78U: the self-cleavage was determined as 0.36.

On to U49C A54G, for which the self-cleavage amounted to 1.19.

Consider U19G G28C, for which the self-cleavage came out at 0.48.

In the case of A96C A117G, the self-cleavage stood at 1.87.

Consider C46U U120C, for which the self-cleavage stood at 0.15.

In the case of A67G A95G, the self-cleavage came out at 2.37.

Take G75A A90G: the self-cleavage is 0.13.

With A78U, the self-cleavage turned out to be 0.36.

For A78C, the self-cleavage turned out to be 0.18.

With A95G U139C, the self-cleavage is 2.07.

As for G75A A92G, the self-cleavage is 0.08.

Take U9C A22U: the self-cleavage worked out at 1.7.

Turning to U49A U127C, the self-cleavage came to 0.38.

Regarding A22G U103C, the self-cleavage came out at 0.98.

As for G74C, the self-cleavage amounted to 0.19.

With A36G A66G, the self-cleavage was determined as 1.8.

As to G15U A118G, the self-cleavage is 1.88.

For the variant U19A A82G, the self-cleavage was 0.68.

Consider U19A A51G, for which the self-cleavage is 1.36.

With A36U A95G, the self-cleavage was 2.18.

On to A23C A117G, for which the self-cleavage is 2.19.

In the case of A30U U103G, the self-cleavage turned out to be 0.03.

On to A11G A95G, for which the self-cleavage worked out at 1.73.

For U39C G53A, the self-cleavage worked out at 1.53.

Take A86C U127A: the self-cleavage came out at 1.62.

Take U70G U97C: the self-cleavage is 1.01.

Consider A24G G58A, for which the self-cleavage worked out at 0.4.

As to U9G A92G, the self-cleavage was 1.15.

With A60G A78G, the self-cleavage came to 0.23.

Consider U9G A118G, for which the self-cleavage came out at 0.91.

For the variant U19C A68U, the self-cleavage amounted to 1.36.

For A92G A117G, the self-cleavage worked out at 1.47.

On to A33U C128A, for which the self-cleavage was 0.48.

G14A A18G: the self-cleavage was 1.29.

As to U12C A68G, the self-cleavage came to 1.21.

Consider A11G A63C, for which the self-cleavage is 0.97.

As for C42U A51U, the self-cleavage was 1.45.

On to U19C A125G, for which the self-cleavage amounted to 0.61.

As to A92G U97C, the self-cleavage stood at 1.57.

In the case of U102C A110C, the self-cleavage was 0.4.

As to A5C U57C, the self-cleavage was 0.75.

On to A13G U26C, for which the self-cleavage is 0.93.

As for C45U A95G, the self-cleavage came out at 1.99.

In the case of G1A A95G, the self-cleavage came out at 2.4.

With A5G U57G, the self-cleavage came to 1.17.

Take A24U A114C: the self-cleavage is 0.04.

As to U100C U122A, the self-cleavage was found to be 2.11.

For the variant G7A A60G, the self-cleavage came out at 2.29.

Turning to U9G U130C, the self-cleavage turned out to be 0.7.

As to U127A C128U, the self-cleavage worked out at 1.78.

Take A13U U108C: the self-cleavage turned out to be 0.01.

In the case of A92G U108A, the self-cleavage amounted to 0.03.

In the case of A110U U127C, the self-cleavage came out at 0.44.

Regarding C34U C128A, the self-cleavage came out at 1.3.

For the variant A111G A114G, the self-cleavage worked out at 0.02.

Regarding A111G A114C, the self-cleavage worked out at 0.

U100C U130C: the self-cleavage was determined as 2.02.

Take U26C A126G: the self-cleavage was 0.72.

C40U A51U: the self-cleavage amounted to 2.

Take C34U G41U: the self-cleavage came out at 1.82.

Regarding U9C U26C, the self-cleavage amounted to 1.06.

On to U72A U124C, for which the self-cleavage turned out to be 0.04.

In the case of A82G G138C, the self-cleavage came to 0.66.

As to A33G A126C, the self-cleavage was found to be 0.86.

With A4U U133C, the self-cleavage was 1.79.

For the variant U120C U139A, the self-cleavage turned out to be 0.85.

For U37C A62U, the self-cleavage is 1.49.

Turning to A59U A63G, the self-cleavage was 1.22.

Turning to U97A A114G, the self-cleavage was 0.64.

As for U43C A114G, the self-cleavage was 0.55.

For the variant U39G C105A, the self-cleavage was 0.16.

As for A5G A23G, the self-cleavage amounted to 0.8.

As for A66U C85U, the self-cleavage worked out at 1.09.

As to A5G A51G, the self-cleavage amounted to 1.2.

As for C101U U131C, the self-cleavage was 0.27.

For the variant U12C A78G, the self-cleavage was determined as 0.31.

As to U19A A110C, the self-cleavage amounted to 0.3.

A13G A116G: the self-cleavage came to 0.55.

As for G83A A98U, the self-cleavage turned out to be 1.82.

Regarding A51G G79A, the self-cleavage came to 0.23.

As for A11G A23G, the self-cleavage was 1.1.

With A96U A125G, the self-cleavage amounted to 0.61.

On to A22G A55G, for which the self-cleavage came to 1.16.

As to A89G A90U, the self-cleavage was 1.39.

In the case of U102C A135G, the self-cleavage came to 1.6.

For A92U U102C, the self-cleavage is 2.01.

As for A5C A30G, the self-cleavage is 0.85.

For A86C U139C, the self-cleavage came to 0.51.

With A56G U102C, the self-cleavage was 1.67.

With A60G U139A, the self-cleavage was 1.12.

G74A G115U: the self-cleavage was 0.03.

A55G A95G: the self-cleavage was determined as 1.92.

As for G41U A78G, the self-cleavage amounted to 0.36.

Turning to A68G G106U, the self-cleavage amounted to 0.02.

As to A62G U139C, the self-cleavage is 1.62.

For the variant A78G A126G, the self-cleavage came out at 0.15.

For the variant G75A U108A, the self-cleavage was found to be 0.01.

For the variant A47U A140G, the self-cleavage was 0.91.

In the case of A60C G65A, the self-cleavage came out at 0.54.

For the variant U70C U120C, the self-cleavage amounted to 0.25.

For the variant U39C C128U, the self-cleavage stood at 1.42.

Regarding A52U U102A, the self-cleavage was 0.36.

In the case of U132A A135G, the self-cleavage amounted to 0.87.

On to U26A A140G, for which the self-cleavage was found to be 2.37.

As for A47G U122C, the self-cleavage worked out at 0.62.

As for A22G A117U, the self-cleavage was found to be 0.49.

In the case of C46U A55G, the self-cleavage turned out to be 1.14.

Regarding U57C U97C, the self-cleavage is 1.09.

For U72A A118G, the self-cleavage was found to be 0.12.

As for A4G C77U, the self-cleavage amounted to 1.45.

For U87A A135G, the self-cleavage is 2.03.

Consider A55G A92G, for which the self-cleavage amounted to 0.67.

As for C42U A62G, the self-cleavage is 1.26.

With U57G U120C, the self-cleavage is 1.11.

As for A66G G80C, the self-cleavage came to 0.12.

On to A22U A33G, for which the self-cleavage was 0.56.

Take A91C A114U: the self-cleavage turned out to be 0.05.

On to A27G U139C, for which the self-cleavage was determined as 1.05.

Consider A24G A36G, for which the self-cleavage was 1.15.

On to G73A A118U, for which the self-cleavage came to 0.04.

Turning to U108A A126G, the self-cleavage worked out at 0.01.

With G7A A54G, the self-cleavage was determined as 0.81.

On to U38A A94C, for which the self-cleavage was found to be 1.68.

As for A62U G136A, the self-cleavage is 1.59.

In the case of U2C A22U, the self-cleavage amounted to 1.51.
